T1: Bud14, P27637
T1 sequence (P27637 247-328, looked up): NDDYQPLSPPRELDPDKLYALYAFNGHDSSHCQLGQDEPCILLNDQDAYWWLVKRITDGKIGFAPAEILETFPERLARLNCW

T2: Abp1, P15891
T2 sequence (P15891 535-592, looked up): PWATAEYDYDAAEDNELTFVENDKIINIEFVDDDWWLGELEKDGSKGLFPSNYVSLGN

T3: Boi2, P39969
T3 sequence (P39969 32-116, looked up): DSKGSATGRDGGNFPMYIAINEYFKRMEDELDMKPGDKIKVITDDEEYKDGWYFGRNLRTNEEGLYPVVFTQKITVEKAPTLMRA

T4: Cdc25, P04821
T4 sequence (P04821 50-136, looked up): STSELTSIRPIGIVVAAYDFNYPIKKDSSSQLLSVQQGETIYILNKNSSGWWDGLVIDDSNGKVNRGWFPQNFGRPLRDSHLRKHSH

T5: Bzz1-1, P38822
T5 sequence (P38822 478-572, looked up): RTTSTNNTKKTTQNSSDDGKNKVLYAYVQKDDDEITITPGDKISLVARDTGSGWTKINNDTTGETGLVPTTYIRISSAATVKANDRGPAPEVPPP

T6: Bzz1-2, P38822
T6 sequence (P38822 568-633, looked up): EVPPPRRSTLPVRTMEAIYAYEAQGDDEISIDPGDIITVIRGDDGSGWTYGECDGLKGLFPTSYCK

T7: Fus1, P11710
T7 sequence (P11710 432-512, looked up): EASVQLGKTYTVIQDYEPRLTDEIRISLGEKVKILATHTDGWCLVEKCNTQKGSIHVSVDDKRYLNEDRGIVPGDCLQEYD

T8: Cyk3, Q07533
T8 sequence (Q07533 1-83, looked up): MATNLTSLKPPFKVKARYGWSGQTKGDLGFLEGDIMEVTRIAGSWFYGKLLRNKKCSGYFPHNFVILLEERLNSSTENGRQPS

T9: Sla1-2, P32790
T9 sequence (P32790 60-140, looked up): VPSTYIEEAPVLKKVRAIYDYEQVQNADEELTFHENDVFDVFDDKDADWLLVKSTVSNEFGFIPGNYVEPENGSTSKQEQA

T10: Myo5, Q04439
T10 sequence (Q04439 1072-1160, looked up): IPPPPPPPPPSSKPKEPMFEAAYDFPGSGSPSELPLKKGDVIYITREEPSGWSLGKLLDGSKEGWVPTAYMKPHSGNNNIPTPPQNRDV

T11: Lsb3, P43603
T11 sequence (P43603 385-451, looked up): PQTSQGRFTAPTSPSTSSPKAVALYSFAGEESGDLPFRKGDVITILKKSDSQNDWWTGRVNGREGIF

T12: Pin3, Q06449
T12 sequence (Q06449 53-122, looked up): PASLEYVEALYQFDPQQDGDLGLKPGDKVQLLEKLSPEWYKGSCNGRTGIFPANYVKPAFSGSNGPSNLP

T13: Bbc1, P47068
T13 sequence (P47068 1-78, looked up): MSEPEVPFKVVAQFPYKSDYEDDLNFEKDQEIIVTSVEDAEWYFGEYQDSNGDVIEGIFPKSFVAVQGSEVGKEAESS

T14: Hse1, P38753
T14 sequence (P38753 208-285, looked up): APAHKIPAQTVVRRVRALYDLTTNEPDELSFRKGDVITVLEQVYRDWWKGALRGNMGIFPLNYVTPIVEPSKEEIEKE

T15: Lsb4, P32793
T15 sequence (P32793 402-468, looked up): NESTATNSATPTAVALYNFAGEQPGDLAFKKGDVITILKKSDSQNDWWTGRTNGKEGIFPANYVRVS

T16: Boi1, P38041
T16 sequence (P38041 1-86, looked up): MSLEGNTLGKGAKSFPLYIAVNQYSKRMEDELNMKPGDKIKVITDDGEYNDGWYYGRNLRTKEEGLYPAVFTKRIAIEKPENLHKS

T17: Nbp2, Q12163
T17 sequence (Q12163 103-180, looked up): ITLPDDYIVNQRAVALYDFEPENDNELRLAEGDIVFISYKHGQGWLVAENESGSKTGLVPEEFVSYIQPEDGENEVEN

T18: Sla1-3, P32790
T18 sequence (P32790 344-424, looked up): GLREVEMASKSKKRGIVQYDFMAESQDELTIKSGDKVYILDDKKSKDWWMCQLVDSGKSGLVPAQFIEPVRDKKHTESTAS

T19: Lsb1, P53281
T19 sequence (P53281 45-122, looked up): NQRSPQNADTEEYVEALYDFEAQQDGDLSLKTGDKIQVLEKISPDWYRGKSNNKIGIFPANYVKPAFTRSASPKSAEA

T20: Hof1, Q05080
T20 sequence (Q05080 590-669, looked up): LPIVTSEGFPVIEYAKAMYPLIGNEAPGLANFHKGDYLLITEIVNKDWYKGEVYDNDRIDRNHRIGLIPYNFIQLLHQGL

T21: Pex13, P80667
T21 sequence (P80667 295-386, looked up): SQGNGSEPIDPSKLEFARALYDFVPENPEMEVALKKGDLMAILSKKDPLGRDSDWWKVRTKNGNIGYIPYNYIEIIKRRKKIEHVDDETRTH

B1: unnamed (peptide)
chain: AATTSTPPLPRRRAT
B2: unnamed (peptide)
chain: IVNKPLPPLPVAGSS
B3: unnamed (peptide)
chain: RRSKSLPITPKSIFN

Each binder was assayed against T1, Bud14, P27637 (assay: SPOT array). Conditions: median of control spots 956.

Row | SPOT intensity | Binder
1 | 1 | B1
2 | 0 | B2
3 | 10 | B3

What follows are binders tested against T2, Abp1, P15891 (assay: SPOT array). Conditions: median of control spots 935.

Row | SPOT intensity | Binder
4 | 109 | B1
5 | 301 | B2
6 | 117 | B3

These binders were tested against T3, Boi2, P39969 (assay: SPOT array). Conditions: median of control spots 1161.

Row | SPOT intensity | Binder
7 | 2 | B1
8 | 0 | B2
9 | 0 | B3

These binders were tested against Bem1-1, P29366 (assay: SPOT array). Conditions: median of control spots 4282.
Bem1-1, P29366, sequence (P29366 55-141): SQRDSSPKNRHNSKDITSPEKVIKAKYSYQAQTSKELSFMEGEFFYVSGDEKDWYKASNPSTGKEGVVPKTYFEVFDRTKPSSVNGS

Row | SPOT intensity | Binder
10 | 0 | B1
11 | 0 | B2
12 | 0 | B3

What follows are binders tested against GST (assay: SPOT array). Conditions: median of control spots 978.

Row | SPOT intensity | Binder
13 | 1 | B1
14 | 0 | B2
15 | 2 | B3

Each binder was assayed against T4, Cdc25, P04821 (assay: SPOT array). Conditions: median of control spots 969.

Row | SPOT intensity | Binder
16 | 4 | B1
17 | 0 | B2
18 | 15 | B3

What follows are binders tested against T5, Bzz1-1, P38822 (assay: SPOT array). Conditions: median of control spots 4446.

Row | SPOT intensity | Binder
19 | 0 | B1
20 | 0 | B2
21 | 0 | B3

These binders were tested against Rvs167, P39743 (assay: SPOT array). Conditions: median of control spots 2707.
Rvs167, P39743, sequence (P39743 419-482): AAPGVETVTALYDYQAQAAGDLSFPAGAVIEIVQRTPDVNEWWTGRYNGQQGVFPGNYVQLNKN

Row | SPOT intensity | Binder
22 | 2280 | B1
23 | 0 | B2
24 | 0 | B3

What follows are binders tested against T6, Bzz1-2, P38822 (assay: SPOT array). Conditions: median of control spots 4538.

Row | SPOT intensity | Binder
25 | 0 | B1
26 | 2 | B2
27 | 0 | B3

Each binder was assayed against T7, Fus1, P11710 (assay: SPOT array). Conditions: median of control spots 1200.

Row | SPOT intensity | Binder
28 | 0 | B1
29 | 0 | B2
30 | 26 | B3

Each binder was assayed against T8, Cyk3, Q07533 (assay: SPOT array). Conditions: median of control spots 1451.

Row | SPOT intensity | Binder
31 | 1 | B1
32 | 0 | B2
33 | 0 | B3

The binders below were run against T9, Sla1-2, P32790 (assay: SPOT array). Conditions: median of control spots 712.

Row | SPOT intensity | Binder
34 | 0 | B1
35 | 0 | B2
36 | 1 | B3

The binders below were run against T10, Myo5, Q04439 (assay: SPOT array). Conditions: median of control spots 471.

Row | SPOT intensity | Binder
37 | 0 | B1
38 | 0 | B2
39 | 0 | B3

What follows are binders tested against T11, Lsb3, P43603 (assay: SPOT array). Conditions: median of control spots 406.

Row | SPOT intensity | Binder
40 | 877 | B1
41 | 2 | B2
42 | 0 | B3

Each binder was assayed against T12, Pin3, Q06449 (assay: SPOT array). Conditions: median of control spots 2171.

Row | SPOT intensity | Binder
43 | 35 | B1
44 | 0 | B2
45 | 4 | B3

The binders below were run against Sho1, P40073 (assay: SPOT array). Conditions: median of control spots 1148.
Sho1, P40073, sequence (P40073 287-367): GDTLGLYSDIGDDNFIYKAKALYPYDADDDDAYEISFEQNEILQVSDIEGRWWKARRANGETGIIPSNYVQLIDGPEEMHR

Row | SPOT intensity | Binder
46 | 38 | B1
47 | 2240 | B2
48 | 1070 | B3

The binders below were run against T13, Bbc1, P47068 (assay: SPOT array). Conditions: median of control spots 796.

Row | SPOT intensity | Binder
49 | 103 | B1
50 | 0 | B2
51 | 15 | B3

What follows are binders tested against T14, Hse1, P38753 (assay: SPOT array). Conditions: median of control spots 1727.

Row | SPOT intensity | Binder
52 | 2 | B1
53 | 59 | B2
54 | 0 | B3

What follows are binders tested against Bem1-2, P29366 (assay: SPOT array). Conditions: median of control spots 4347.
Bem1-2, P29366, sequence (P29366 139-227): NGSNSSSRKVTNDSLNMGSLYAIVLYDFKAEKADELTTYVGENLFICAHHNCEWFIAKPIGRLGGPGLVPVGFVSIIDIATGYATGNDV

Row | SPOT intensity | Binder
55 | 0 | B1
56 | 0 | B2
57 | 0 | B3

These binders were tested against T15, Lsb4, P32793 (assay: SPOT array). Conditions: median of control spots 397.

Row | SPOT intensity | Binder
58 | 1360 | B1
59 | 0 | B2
60 | 0 | B3

The binders below were run against T16, Boi1, P38041 (assay: SPOT array). Conditions: median of control spots 1162.

Row | SPOT intensity | Binder
61 | 0 | B1
62 | 1 | B2
63 | 0 | B3

Each binder was assayed against Myo3, P36006 (assay: SPOT array). Conditions: median of control spots 468.

Row | SPOT intensity | Binder
64 | 31 | B1
65 | 0 | B2
66 | 0 | B3

Each binder was assayed against T17, Nbp2, Q12163 (assay: SPOT array). Conditions: median of control spots 357.

Row | SPOT intensity | Binder
67 | 0 | B1
68 | 0 | B2
69 | 0 | B3

What follows are binders tested against T18, Sla1-3, P32790 (assay: SPOT array). Conditions: median of control spots 5475.

Row | SPOT intensity | Binder
70 | 0 | B1
71 | 0 | B2
72 | 21 | B3

These binders were tested against T19, Lsb1, P53281 (assay: SPOT array). Conditions: median of control spots 388.

Row | SPOT intensity | Binder
73 | 243 | B1
74 | 0 | B2
75 | 0 | B3

What follows are binders tested against T20, Hof1, Q05080 (assay: SPOT array). Conditions: median of control spots 4086.

Row | SPOT intensity | Binder
76 | 5 | B1
77 | 1440 | B2
78 | 0 | B3

These binders were tested against T21, Pex13, P80667 (assay: SPOT array). Conditions: median of control spots 1341.

Row | SPOT intensity | Binder
79 | 364 | B1
80 | 688 | B2
81 | 8 | B3

From PMC2756588
